{
  "source": "paper PMC2173498",
  "assay_in_all_cases": "SEC",
  "key": {"M9-βgal": {"molecular_target": "M9-βgal (UniProt P09651)"}, "IBB-nucleoplasmin": {"molecular_target": "IBB-nucleoplasmin (UniProt P52292)"}, "IBB-βgal": {"molecular_target": "IBB-βgal (UniProt P52292)"}, "Thyroglobulin-NLS": {"molecular_target": "Thyroglobulin-NLS"}},
  "data": [
    {"substance": "WT transportin (from UniProt Q92973 1-898) (natural protein)", "values": [
      {"measurement": "stoichiometry N (receptors per cargo)", "setting": "M9-βgal", "result": 4}
    ]},
    {"substance": "M9-βgal (from UniProt P09651-2 255-320)", "values": [
      {"measurement": "stoichiometry N", "setting": "M9-βgal", "result": 4}
    ]},
    {"substance": "IBB-nucleoplasmin (from UniProt P52292 1-65; P05221 1-149)", "values": [
      {"measurement": "stoichiometry N", "setting": "IBB-nucleoplasmin", "result": 10}
    ]},
    {"substance": "WT importin β (from UniProt Q14974 1-876) (natural protein)", "values": [
      {"measurement": "stoichiometry N (receptors per cargo)", "setting": "IBB-βgal", "result": 4},
      {"measurement": "stoichiometry N (receptors per cargo)", "setting": "IBB-nucleoplasmin", "result": 5}
    ]},
    {"substance": "Thyroglobulin-NLS", "values": [
      {"measurement": "stoichiometry N", "setting": "Thyroglobulin-NLS", "result": 2}
    ]}
  ]
}
